In IntAct's records for PubMed 18562279:

Biological target: akt1_human AKT1 (UniProt P31749)
Sequence (P31749 whole entry): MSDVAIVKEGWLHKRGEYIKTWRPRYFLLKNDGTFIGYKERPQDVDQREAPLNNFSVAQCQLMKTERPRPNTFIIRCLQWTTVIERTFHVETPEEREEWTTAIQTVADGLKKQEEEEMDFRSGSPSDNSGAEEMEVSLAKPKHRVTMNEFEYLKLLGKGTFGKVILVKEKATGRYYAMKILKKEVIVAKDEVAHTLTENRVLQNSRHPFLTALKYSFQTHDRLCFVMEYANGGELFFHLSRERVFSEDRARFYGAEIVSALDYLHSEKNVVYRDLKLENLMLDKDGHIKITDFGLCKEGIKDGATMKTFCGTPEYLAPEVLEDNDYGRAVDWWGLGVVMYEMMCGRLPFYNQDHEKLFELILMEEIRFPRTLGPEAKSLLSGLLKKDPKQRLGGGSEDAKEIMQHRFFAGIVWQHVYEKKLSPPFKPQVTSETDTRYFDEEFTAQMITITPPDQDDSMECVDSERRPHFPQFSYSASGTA

effect of a mutation on the interaction | Substance
disrupting interaction | THO complex subunit 4 (Homo sapiens) (from UniProt Q86V81) S34A
disrupting interaction | THO complex subunit 4 (Homo sapiens) (from UniProt Q86V81) T219A
